Assay results taken from US20260007756A1, “COMPOUND AND USE THEREOF” (COHERENT BIOPHARMA (SUZHOU) LIMITED, priority 2022, published 2026).
Converted amounts (≈) assume the structure as drawn. Where two headings read alike, the source gives them in different places.

Key:
LNCaP [1] = assay: Expansion inhibition of tumor cells (Example 10, CCK-8); format: cell-based; conditions: Homo sapiens, LNCap (PSMA overexpression), 72 h
Method: Samples were serially diluted with medium (serially 5-fold diluted from 10 μM) to 9 concentrations. […] Negative and blank controls were set.
(§1) A CCK-8 developing solution was added at 10 μL/well (10% of the liquid volume in the wells). The plates were incubated at 37° C. for a proper time (the OD value was controlled within the range of 1.0-2.5 as possible). The plate covers were removed, and the 96-well plates were loaded on a microplate reader (Molecular Devices SpectraMax iD5) to read the measurement at 450 nm.

[2] = test system: human prostate cancer C4-2 cell subcutaneous xenograft tumor; assay: Pharmacodynamic assessment, C4-2 xenograft model; format: in vivo, NCG mouse; conditions: 12.5 mg/kg i.v biw×3, day 23 after grouping
Text: Objective: Pre-clinical assessment of the efficacy of compounds for treating NCG mouse model with C4-2 cell subcutaneous xenograft tumor (overexpressing PSMA).
Procedures: C4-2 cells were subcutaneously grafted at the right back of the mice, and the mice were randomized when the mean tumor volume reached 100-150 mm^3. After the administration, the routine monitoring included the effect on tumor growth and the effect of treatment on the normal behavior of the animals, specifically the activity, food and water intake, weight gain or loss, the eyes, the hair, and other abnormal conditions. Clinical symptoms observed during the study were recorded in the raw data. After the administration was started, the body weight and tumor size of the mice were measured periodically. The tumor volume was calculated using the following formula: V=1/2×(a×b^2), where a and b denote the long diameter and short diameter of the tumor, respectively.

Plasma stability study 1 = format: in vitro ADME; conditions: mouse plasma, 37° C.
Method: Procedures: The conjugate compounds were dissolved in acetonitrile-water (1:1) or acetonitrile-water (1:1, containing 0.1% TFA) to prepare 1 mg/mL stock solutions; 10 μL of the 1 mg/mL stock solution was added to 90 μL of plasma, and the mixture was gently mixed well. The plasma drug samples were shaken and incubated in a 37° C. thermostat for 0, 0.5, 1, 2, 4, 6, or 24 h; at the time points, the samples were taken out and 300 μL of methanol solution (containing 10 ng/ml of terfenadine) was added for protein precipitation; the mixture was centrifuged (12 min, 4° C., 12000 rpm) and the supernatant was collected, and preserved in a −80° C. refrigerator; after collection, the samples were loaded for LC-MS analysis.

Solubility study in PBS = format: physicochemical; conditions: aqueous buffer, thermodynamic from solid; PBS (pH 7.2 to 7.4); read-out: Solubility, concentration
Method: The mixture was vortexed for 2 min until the solid was dissolved. The solubility was calculated as: C=m/V, C: concentration, m: sample weight, V: PBS total volume.

cathepsin B-human liver = cathepsin B-human liver (Homo sapiens, UniProt P07858); assay: Cathepsin B cleavage study (HPLC); format: in vitro ADME; design: cathepsin B-human liver (source: Sigma); purchased Sigma; host or cells: human liver (tissue-derived, as the product name says); conditions: 37° C.
Method: Procedures: The conjugate compounds were dissolved in acetonitrile-water (1:1, containing 0.1% TFA) to prepare 1 mg/mL stock solutions; 30 μL of the 1 mg/mL stock solution was added to 570 μL of 50 mM NaOAc (containing 1 mM EDTA and 10 mM cysteine), and the mixture was mixed well; 7 μL of cathepsin B (0.05 U/μL) was added, and the mixture was gently mixed evenly; the reaction system was transferred into a 37° C. thermostat for 0, 1, 2, 4, or 8 h of incubation; samples were taken at each time point for HPLC analysis.

[3] = test system: human prostate cancer 22RV1 cell subcutaneous xenograft tumor; assay: Pharmacodynamic assessment, 22RV1 xenograft model; format: in vivo
Text: Objective: Pre-clinical pharmacodynamic study of compounds for treating BALB/c nude mouse model with 22RV1 cell subcutaneous xenograft tumor (overexpressing PSMA).
Procedures: 22RV1 tumor mass was grafted subcutaneously at the right back of the mice, and the mice were randomized after the mean tumor volume was 150 mm^3. After administration, the animals were monitored daily for health conditions and death, and the routine examinations included observation of the effect on tumor growth and the effect of the treatment on the daily performance of the animals, such as behavioral activities, food and water intake, weight changes (measured once every other day), appearance, or other abnormal conditions. Whether the tumor growth was inhibited or delayed or the tumor was cured was also observed. The tumor volume was measured periodically. The tumor volume was calculated using the following formula: V=1/2×(a×b^2), where a and b denote the long diameter and short diameter of the tumor, respectively.

MDA-MB-231-FOLR1 = conditions: MDA-MB-231-FOLR1, 72 h, CCK-8
Method: (§2) Major reagents: 1640 folic acid-free medium, fetal bovine serum, penicillin-streptomycin solution, L-glutamine, and CCK8.
(§3) Cells were prepared in advance, trypsinized, collected, counted, diluted to 2×10^4 cells/mL in a complete cell culture medium, and plated in 96-well plates. The diluted cell suspension was added at 100 μL/well, and negative and blank control wells were set on each plate. The 96-well plates with the added cells were incubated overnight at 37° C. in a 5% CO2 incubator.
(§4) Samples were serially diluted with medium (serially 5-fold diluted from 10 μM) to 9 concentrations. The medium in the plates was discarded, and the drug solutions were added at 100 μL per well to a 96-well plate in triplicate. Negative and blank controls were set. The plates were incubated at 37° C. for 72 h in a 5% CO2 incubator.
as §1
(§5) Four-parameter curves were fitted using GraphPad Prism 8.0.2 to give IC50 values.

MDA-MB-231-PSMA = conditions: 72 h, CCK-8
Method: as §2, §3, §4, §1, §5

293T-PSMA = conditions: 72 h, CCK-8
Method: as §2, §3, §4, §1, §5

LNCaP [4] = conditions: LNCap (PSMA overexpression), 72 h, CCK-8
Method: as §2, §3, §4, §1, §5

C4-2 = C4-2 (PSMA overexpression), 72 h, CCK-8
Method: as §2, §3, §4, §1, §5

22RV1 = 22RV1 (PSMA overexpression), 72 h, CCK-8
Method: as §2, §3, §4, §1, §5

[5] = 12.5 mg/kg iv biw×3, day 31 after grouping

Cc1ncsc1-c1ccc(CNC(=O)C2CC(O)CN2C(=O)C(NC(=O)COCC(=O)NC2(C(=O)NCCCn3cc(-c4ccc(OC(F)(F)F)cc4)c4cc(CN5CCN(Cc6c(Cl)cccc6Cl)CC5)ccc43)CCNCC2)C(C)(C)C)cc1 (stereo not shown) [CR202CC]
IC50 (LNCaP [1]): 0.3 nM

CC[C@@H]1C(=O)N(C)c2cnc(Nc3ccc(-c4cn(C5CCC(N(CCOCCC#Cc6cccc7c6CN(C6CCC(=O)NC6=O)C7=O)C(=O)OCc6ccc(NC(=O)[C@H](CCCNC(N)=O)NC(=O)[C@H](Cc7ccccc7)NC(=O)CCCCCN7C(=O)CC(SC[C@H](NC(=O)[C@H](CCCCN)NC(=O)[C@H](CC(=O)O)NC(=O)[C@H](CC(=O)O)NC(=O)Cc8ccc(CNC(=O)NCCCC[C@H](NC(=O)N[C@@H](CCC(=O)O)C(=O)O)C(=O)O)cc8)C(=O)N[C@@H](CCCCNC(=O)CC[C@H](NC(=O)c8ccc(NCc9cnc%10[nH]c(N)nc(=O)c%10n9)cc8)C(=O)O)C(N)=O)C7=O)cc6)CC5)nn4)cc3OC)nc2N1C1CCCC1 (stereo partly shown) [CR20293]
Mean tumor volume [2]: 778.70 mm^3
TGI [2]: 55.47%
CR20274 release rate of compounds in plasma stability study (Plasma stability study 1; 0 h): 0.00%
Principal component residue of compounds in plasma stability study (Plasma stability study 1; 0 h): 83.13%
CR20274 release rate of compounds in plasma stability study (Plasma stability study 1; 0.5 h): 0.17%
remaining at 0.5 h, 100 μg/mL (Plasma stability study 1; 0.5 h, read-out: Principal component residue of compounds in plasma stability study): 75.6%
CR20274 release rate of compounds in plasma stability study (Plasma stability study 1; 1 h): 0.32%
remaining at 1 h, 100 μg/mL (Plasma stability study 1; 1 h, read-out: Principal component residue of compounds in plasma stability study): 75.8%
CR20274 release rate of compounds in plasma stability study (Plasma stability study 1; 2 h): 0.52%
remaining at 2 h, 100 μg/mL (Plasma stability study 1; 2 h, read-out: Principal component residue of compounds in plasma stability study): 67.8%
CR20274 release rate of compounds in plasma stability study (Plasma stability study 1; 4 h): 0.67%
remaining at 4 h, 100 μg/mL (Plasma stability study 1; 4 h, read-out: Principal component residue of compounds in plasma stability study): 69.8%
CR20274 release rate of compounds in plasma stability study (Plasma stability study 1; 6 h): 0.95%
remaining at 6 h, 100 μg/mL (Plasma stability study 1; 6 h, read-out: Principal component residue of compounds in plasma stability study): 70.5%
CR20274 release rate of compounds in plasma stability study (Plasma stability study 1; 24 h): 3.38%
remaining at 24 h, 100 μg/mL (Plasma stability study 1; 24 h, read-out: Principal component residue of compounds in plasma stability study): 45.4%
solubility at 2 min (Solubility study in PBS): 20.6 mg/mL (≈ 6.75 mM)
CR20274 release rate of conjugate compounds after cleavage (cathepsin B-human liver; 0 h): 0%
Principal component residue of conjugate compounds after cleavage (cathepsin B-human liver; 0 h): 100%
CR20274 release rate of conjugate compounds after cleavage (cathepsin B-human liver; 1 h): 17%
Principal component residue of conjugate compounds after cleavage (cathepsin B-human liver; 1 h): 76%
CR20274 release rate of conjugate compounds after cleavage (cathepsin B-human liver; 2 h): 38%
Principal component residue of conjugate compounds after cleavage (cathepsin B-human liver; 2 h): 46%
CR20274 release rate of conjugate compounds after cleavage (cathepsin B-human liver; 4 h): 59%
Principal component residue of conjugate compounds after cleavage (cathepsin B-human liver; 4 h): 27%
CR20274 release rate of conjugate compounds after cleavage (cathepsin B-human liver; 8 h): 64%
Principal component residue of conjugate compounds after cleavage (cathepsin B-human liver; 8 h): 7%
Mean tumor volume [3, 5]: 46.32 mm^3
TGI [3, 5]: 97.51%
Tolerability (body weight, death) ([3]; tumor-bearing BALB/c nude mice, during the study): well tolerated
IC50 (MDA-MB-231-FOLR1): 94.2 nM
IC50 (MDA-MB-231-PSMA): 70.6 nM
IC50 (293T-PSMA): 3270 nM
IC50 (LNCaP [4]): 37.9 nM
IC50 (C4-2): 78 nM
IC50 (22RV1): 16.4 nM
